Laboratory results from patent publication US11872262B2, “Means and methods for treating bacterial infections” (VIB VZW, priority 2017, dated 2024).
Residues, ends and D or L forms follow the SMILES beside them. *: point of attachment. FITC = O=C1OC2(c3ccc(O)cc3Oc3cc(O)ccc32)c2ccc(NC(=S)*)cc21

Tests used:
[1] = Biodistribution study in healthy animals; format: in vivo, mice; details: single dose of 10 mg/kg, IP or urinary tract
Method: FIG. 7: Fluorescence imaging of organs ex vivo 3 h after a single injection (10 mg/kg) of Colpeptin1.
Given these positive results, we then established the tolerance of the Swiss mice to the peptide by performing a dose escalation experiment. […] The parameters observed included body weight, food and water consumption, home cage activity and locomotion. […] Based on these observations, we tested the antibacterial efficacy of the colpeptin1 in a mouse bladder infection model. In this model, an inoculum of 50 μL of a 10^8 CFU/mL suspension of E. coli O157:H7 was delivered via the urethra to the bladder of healthy Swiss mice. 1 h post-infection, we administered a single injection of colpeptin1 at 10 mg/kg, either via the urethra (n=15) or intraperitoneally (n=15). 24 h after treatment, the animals were sacrificed and the bacterial titer in kidney, colon, bladder and ureter was determined by plating the macerated tissue (FIG. 2F-l).

E. coli O157 = format: cell-based, Escherichia coli; details: HPLC-grade purified peptides, E. coli O157
Method: The MICs of active peptides were determined via the Broth microdilution assay according to the EUCAST guideline, which were performed in 96-well polystyrene flat-bottom microtiter plates (BD Biosciences). Briefly, a single colony was inoculated into 5 mL LB medium and grown to the end-exponential growth phase in a shaking incubator at 37° C. Cultures were subsequently diluted to an OD600 of 0.002 ([…]) in fresh LB medium. 100 μL of LB medium with different concentration of peptides ranging from 100 μg/mL to 1 μg/mL were serially diluted to the sterile 96-well plate (at least 3 wells in each plate). Afterward, 100 μL of the diluted bacteria were pipetted into 96-well plates containing different concentration of peptides. In each plate, the grown bacteria with maximum concentration of carrier and medium were considered as positive and negative controls, respectively. Thereafter, 96-well plates was statically incubated overnight at 37° C. to allow bacterial growth. A multipurpose UV/VIS plate reader at OD590 nm, 1 s shaking measured the absorbance of the growth bacteria using a Perkin Elmer spectrophotometer (1420 Multilabel Counter Victor 3).

Structure (SMILES)	clearance of the peptide [1]	duration of distribution of fluorescent material after injection [1]	MIC (E. coli O157) [µg/mL]
CC(C)C[C@H](NC(=O)CNC(=O)[C@H](CCCNC(=N)N)NC(=O)[C@@H]1CCCN1C(=O)[C@H](CCCNC(=N)N)NC(=O)[C@H](CCCNC(=N)N)NC(=O)[C@@H](NC(=O)[C@H](CC(C)C)NC(=O)[C@H](C)NC(=O)[C@H](CC(C)C)NC(=O)CNC(=O)[C@H](CC(C)C)NC(=O)CNC(=O)[C@H](CCCNC(=N)N)NC(=S)Nc1ccc2c(c1)C(=O)OC21c2ccc(O)cc2Oc2cc(O)ccc21)C(C)C)C(=O)NCC(=O)N[C@@H](CC(C)C)C(=O)N[C@@H](C)C(=O)N[C@@H](CC(C)C)C(=O)N[C@H](C(=O)N[C@@H](CCCNC(=N)N)C(=O)N[C@@H](CCCNC(=N)N)C(=O)O)C(C)C [FITC-colpeptin1] ({FITC}-RGLGLALVRRPRGLGLALVRR-OH; N-terminus and C-terminus assumed)	total clearance of the peptide after 24 h	at least 3 h	
CC(C)C[C@H](NC(=O)CNC(=O)[C@H](CCCNC(=N)N)NC(=O)[C@@H]1CCCN1C(=O)[C@H](CCCNC(=N)N)NC(=O)[C@H](CCCNC(=N)N)NC(=O)[C@@H]1CCCN1C(=O)[C@H](CC(C)C)NC(=O)[C@H](C)NC(=O)[C@@H]1CCCN1C(=O)CNC(=O)[C@H](CC(C)C)NC(=O)CNC(=O)[C@@H](N)CCCNC(=N)N)C(=O)NCC(=O)N1CCC[C@H]1C(=O)N[C@@H](C)C(=O)N[C@@H](CC(C)C)C(=O)N1CCC[C@H]1C(=O)N[C@@H](CCCNC(=N)N)C(=O)N[C@@H](CCCNC(=N)N)C(=O)O [P2 pro2] (H-RGLGPALPRRPRGLGPALPRR-OH)			>100
